These results are taken from PMC4390494 (Journal of immunology (Baltimore, Md. : 1950), 2015).

This data set deals with the molecule itself. Nature of the data set: pull-down.

B1: HkRP3 (1) (aa 1-724), GST- or MBP-fused (domain or fragment, UniProt A6NC98-1 1-724, looked up)
chain: MEGGKGPRLRDFLSGSLATWALGLAGLVGEAEDSEGEEEEEEEEPPLWLEKRFLRLSDGALLLRVLGIIAPSSRGGPRMLRGLDGPAAWRVWNLNHLWGRLRDFYQEELQLLILSPPPDLQTLGFDPLSEEAVEQLEGVLRLLLGASVQCEHRELFIRHIQGLSLEVQSELAAAIQEVTQPGAGVVLALSGPDPGELAPAELEMLSRSLMGTLSKLARERDLGAQRLAELLLEREPLCLRPEAPSRAPAEGPSHHLALQLANAKAQLRRLRQELEEKAELLLDSQAEVQGLEAEIRRLRQEAQALSGQAKRAELYREEAEALRERAGRLPRLQEELRRCRERLQAAEAYKSQLEEERVLSGVLEASKALLEEQLEAARERCARLHETQRENLLLRTRLGEAHAELDSLRHQVDQLAEENVELELELQRSLEPPPGSPGEAPLAGAAPSLQDEVREAEAGRLRTLERENRELRGLLQVLQGQPGGQHPLLEAPREDPVLPVLEEAPQTPVAFDHSPQGLVQKARDGGPQALDLAPPALDSVLEASAECPQAPDSDPQEAESPLQAAAMDPQASDWSPQESGSPVETQESPEKAGRRSSLQSPASVAPPQGPGTKIQAPQLLGGETEGREAPQGELVPEAWGLRQEGPEHKPGPSEPSSVQLEEQEGPNQGLDLATGQAEAREHDQRLEGTVRDPAWQKPQQKSEGALEVQVWEGPIPGESLASGV
On to B1, for which the binding result was “binds”.
